Reference: US20220251222A1, “IL-6Ralpha/IL-8R BISPECIFIC BINDING AGENTS FOR INHIBITING CANCER CELL MIGRATION” (The Johns Hopkins University, priority 2019, published 2022)

Biological target: human IL-6 (residues 3-185) displayed on the surface of yeast (human) (UniProt P05231)
Experiment: flow cytometry titration of IL-6Rα ECD on IL-6-displaying yeast

## human IL-6Rα extracellular domain (ECD), residues 89-303 of the mature protein, with C-terminal biotin acceptor peptide and hexahistidine, biotinylated (from UniProt P08887 108-322) (receptor)
  Kd: 88 nM
